Source: US7344852 (Takeda / Millennium, dated 2008)

Biological target: the molecule itself
Test: X-ray crystal structure of apo DPPIV (self-association, homodimer)
Method: The structure of DPPIV was solved by a combination of heavy-atom derivatives and Seleno-Methionine (Se-Met) phasing in conjunction with non-crystallographic averaging. Heavy atom derivatives were obtained by soaking native DPPIV crystals in heavy atom solutions made using the crystallization solution. The concentration of heavy atom derivative and time of soaking varied between 0.5 mM to 10 mM and 1 to 15 days, respectively. An extensive array of heavy atom derivatives were individually soaked into DPPIV crystals and analyzed. Two heavy atom derivatives were used to determine the phases: di-m-iodobis (ethylene-diamine)-di-platinum (II) nitrate (PIP) and ethyl mercuric thiosalicylic acid sodium salt (EMTS). Data from crystals of apo DPPIV, Se-Met-DPPIV, PIP-DPPIV and EMTS-DPPIV were collected from cryocooled crystals (100K) at the Stanford Synchrotron Radiation Laboratory (SSRL) beam lines 9-1, 9-2 and 11-1 and the Advanced Light Source (ALS) beam lines 5.0.2 and 5.0.3 both using an ADSC Quantum CCD detector. […] Data were collected and integrated to 2.3 Å with MOSFLM (or HKL2000) and scaled with SCALA (or Scalepack) (CCP4 Study Weekend, Eds. Sawyer, L., Isaacs, N. & Bailey, S. 56-62, SERC Daresbury Laboratory, England, 1993).
Crystals were obtained after an extensive and broad screen of conditions, followed by optimization. […]

B1: recombinant human dipeptidyl peptidase IV (DPPIV), residues 39-766 of SEQ ID NO:1 with part of a gp67 signal sequence and a 6x-histidine tag (SEQ ID NO:3) (enzyme)
chain: ADPGGSHHHHHHSRKTYTLTDYLKNTYRLKLYSLRWISDHEYLYKQENNILVFNAEYGNSSVFLENSTFDEFGHSINDYSISPDGQFILLEYNYVKQWRHSYTASYDIYDLNKRQLITEERIPNNTQWVTWSPVGHKLAYVWNNDIYVKIEPNLPSYRITWTGKEDIIYNGITDWVYEEEVFSAYSALWWSPNGTFLAYAQFNDTEVPLIEYSFYSDESLQYPKTVRVPYPKAGAVNPTVKFFVVNTDSLSSVTNATSIQITAPASMLIGDHYLCDVTWATQERISLQWLRRIQNYSVMDICDYDESSGRWNCLVARQHIEMSTTGWVGRFRPSEPHFTLDGNSFYKIISNEEGYRHICYFQIDKKDCTFITKGTWEVIGIEALTSDYLYYISNEYKGMPGGRNLYKIQLSDYTKVTCLSCELNPERCQYYSVSFSKEAKYYQLRCSGPGLPLYTLHSSVNDKGLRVLEDNSALDKMLQNVQMPSKKLDFIILNETKFWYQMILPPHFDKSKKYPLLLDVYAGPCSQKADTVFRLNWATYLASTENIIVASFDGRGSGYQGDKIMHAINRRLGTFEVEDQIEAARQFSKMGFVDNKRIAIWGWSYGGYVTSMVLGSGSGVFKCGIAVAPVSRWEYYDSVYTERYMGLPTPEDNLDHYRNSTVMSRAENFKQVEYLLIHGTADDNVHFQQSAQISKALVDVGVDFQAMWYTDEDHGIASSTAHQHIYTHMSHFIKQCFSLP
modifications: glycosylated; four or five residues per chain carry covalently linked sugar molecules (NAG), positions not given
notes: Secreted from baculovirus-infected insect cells; crystallised as apo protein; The asymmetric unit holds four copies that form two dimers (A with B, C with D); also called DPP4; CD26
- binding result: binds
